Measured values from patent US20200206304A1, “METHODS AND COMPOSITIONS FOR EFFICIENT DELIVERY THROUGH MULTIPLE BIO BARRIERS” (Cedars-Sinai Medical Center, priority 2017, published 2020).
Read-outs that look alike come from different tables or passages of the source. Square brackets hold non-standard residues; d marks the D form. Ends that are not written are not given here.

Columns and labels:
[1] = Zeta potential measurements (Zetasizer Nano ZS90); assay type: physicochemical; conditions: in PBS; voltage 150 mV
Experimental: Zeta Potential Measurements: Synthesized conjugates were characterized with respect to their ζ potential using a Zetasizer Nano ZS90 (Malvern Instruments, Malvern, UK). Ten microliter aliquots of nanoconjugate samples were diluted in 0.99 mL PBS, and the voltage applied was 150 mV. Data represent the mean of three measurements±their standard deviation.

neurons and astroglia = conditions: for % of positive cells, Cortex astroglia: astroglia (GFAP); for % of positive cells, Cortex neurons: neurons (Neun)
Experimental: Neuronal and glial counterstaining: In FIGS. 27A-27C, brain tissue from drug-injected mice was counterstained to determine if our nanoconjugates are taken up by neurons or glia. Cryosections ([…]) were air-dried for 10 min, fixed with 2% paraformaldehyde for 5 min, and then rinsed three times with PBS. […] The antibodies anti-Neun (Abcam, Cambridge, Mass., USA; AB104225) and anti-GFAP (Neuromics, Edina, Minn., USA; C1122102) were then diluted 1:500 in PBS-T and tissue sections incubated simultaneously with antibody solutions overnight at 4° C. in a humid chamber. Tissue sections were then washed five times with PBS-T and incubated in appropriate secondary antibody diluted 1:250 in PBS-T, for 2-4 h. After five washes in PBS at room temperature, sections were mounted between coverslips in Fluoromount-G with DAPI.
To this end, after systemic injection of our D-conjugates we counterstained brain tissue sections of hippocampus and cortex with anti-Neun to label neurons, and with anti-GFAP to label astroglia (FIGS. 27A-27C) and inspected the stained sections for red fluorescent particulates. […] Positive neurons and glia cells were counted after systemic injection of conjugates containing D1, D3, AC189 peptides, and of a control PBS (FIGS. 27A-27C).

brain cells = conditions: 0.274 μmol/kg
Experimental: For the particulate fluorescence analysis, images were converted to binary images, and then 5 ROIs 20*20 μm^2 were drawn per image. The area of each particle on the ROI was measured using the Image) particle analysis tool, where each particle was measured separately. Sizes were then summarized, sorted, and further analyzed using Minitab18 software (Minitab, Inc, State College, Pa., USA). Particulate areas observed between different conditions were compared via a one-way ANOVA combined with post-hoc Tukey tests to test differences between each experimental group.
A more reliable method to separate the particulate from the cellular fluorescence was reasoned to be by adjusting the levels of the image and converting it to a binary image, allowing the detection of only particulates eliminating interference of the diffused background. FIGS. 29A-29D illustrate intracellular fluorescence of mini nanodrugs.
Each ROI was converted to binary (black and white) image and the area and number of particles were quantified. 3 images per brain area were tested for 3 mice per group.
The particle content (example of ROI in FIG. 29A) then was measured. The average size of the particulate fluorescence is a proxy to estimate the intracellular load of fluorescent nanoconjugates following their injections. An example of such an analysis is shown in FIG. 29A: the yellow squares indicate regions of interest that were used to quantify particulate fluorescence. FIGS. 29B-29C summarize the average size of the intracellular fluorescence particles in the cortex ([…]), midbrain (FIG. 29C), and the hippocampus (FIG. 29C).

glioblastoma GL261 = conditions: mouse, in vivo
Aβ plaque = biological target: T1, Aβ plaque (Homo sapiens, UniProt P05067); experiment: Percentage of total plaques labeled by mini nanodrugs in AD mice; assay type: in vivo,  (B6.Cg-Tg (APPswe/PS1ΔE9) 85Dbo/J hemizygous) mice
T1 construct: tissue Jackson Laboratories; host or cells: brain of 6-8 month old APPswe/PS1ΔE9 transgenic mice, plaques labelled in vivo after iv injection and counterstained on sections
T1 sequence (P05067 672-713 limits assumed): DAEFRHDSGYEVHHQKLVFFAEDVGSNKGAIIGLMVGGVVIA
Experimental: Slides were air dries and fixed using freshly diluted 2% PFA for 5 minutes. The PFA was washed 3 timed with PBS, and brains were covered with 70% EtOH for 5 minutes before washing with dH2O for 2 minutes. 1× Amylo-Glo (Biosenses, #TR-300-AG 100×, diluted with PBS) was then added for 10 minutes. The slides were then washed with PBS (5 minutes) and dH2O (15 seconds) and mounted (Fluoromount-G, No DAPI, Invitrogen), and stored at 4° C. prior to imaging.
Brains were collected and preserved in OTC for immunostaining.

neurons = conditions: 0.274 μmol/Kg, vs PBS
brain parenchyma = conditions: cortex; 0.274 μmol/Kg
Experimental: To determine how nanoconjugate-associated fluorescence relates to the anatomy of the vasculature, the distance of each analyzed ROI was manually measured from the nearest blood vessel wall (using line tool in FIJI). For tumor bearing mice, 5 images per tumor tissue and 5 per brain tissue were analyzed for each mouse. Intensity values were then plotted against the location of the blood vessel wall and summarized in scatterplots (e.g., FIG. 14B).
Drug concentrations are listed with regard to total nanoconjugate content systemically injected. […] Referring to FIG. 14B, fluorescence measurements were obtained from 10 μm^2-sized regions of interest (ROI) that were randomly overlaid on regions devoid of vasculature shown as yellow squares on photograph 1 of FIG. 14A. Intensity measurements and positions were then obtained for each ROI and plotted against the location of the nearest blood vessel wall. FIG. 14C is set of charts: chart 1—Cortex; chart 2—Midbrain and chart 3 Hippocampus, illustrating average nanoconjugate fluorescence in the brain parenchyma measured following injections at four different drug concentrations. In this figure, fluorescence is shown as relative fluorescence, which is the measured nanoconjugate fluorescence after subtraction of autofluorescence imaged from PBS injected animals using similar acquisition settings.
FIG. 14B explores this relationship in a plot from all of the measurements (for each condition: 4 mice, 3-4 sections with 20 random measurements each). All fluorescence intensity measurements were conducted with 10 μm^2-sized regions of interest placed outside of tomato-lectin stained blood vessels (ROI as in Photograph 1 of FIG. 14A); the positions of these ROIs were then measured against the location of the nearest blood vessel wall to produce the scatterplot in FIG. 14B.
The resulting data were used as a metric to examine how well the mini nanodrug was able to travel from the vessels into the surrounding parenchyma and encounter brain cells. […] Nanoconjugate diffused fluorescence intensity vs. ‘distance from vasculature’ measurements in brain parenchyma of mice injected with nanoconjugates at a dose of 0.274 μmol/Kg. Fluorescence measurements were obtained from […] regions of interest (ROI) that were randomly overlaid on regions devoid of vasculature (shown by yellow squares in FIG. 22A). Intensity measurements and positions were then obtained for each ROI and plotted against the location of the nearest blood vessel wall.

Brain (other hemisphere) = conditions: 2 h, PBS background subtracted
[2] = tested on: blood-brain barrier (BBB); conditions: transgenic mice vs normal mice, doses 2×-8×
Experimental: AD-Mouse models: 6-8 month old […] (B6.Cg-Tg (APPswe/PS1ΔE9) 85Dbo/J hemizygous) mice were obtained from Jackson Laboratories. Mouse maintenance and experimental procedures followed the guidelines established by the Cedars Sinai Institutional Animal Care and Use Committee (IACUC Protocol #7416). Three to four mice of each sex were used for each experiment. Nanoconjugates were dissolved freshly in PBS (pH 7.4) prior to each experiment and injected intravenously (i.v.) into the lateral tail vein. […] Mice were anesthetized with isoflurane beforehand and their tails were briefly warmed to facilitate injections. The drug injection volume was kept constant at 150 μL. After each injection, mice were promptly returned to their cages. Brains were collected and preserved in OTC for immunostaining.
The brains were harvested and a 14 μm thick slices which were fixed and stained with DAPI to envision the nuclei
A comparison with normal brain was beneficial for understanding of the development of Alzheimer's disease.

amyloid β (Aβ) plaques = amyloid β (Aβ) plaques (UniProt P05067); experiment: in vivo labelling of Aβ plaques after i.v. injection of rhodamine-labelled conjugate into APPswe/PS1ΔE9 AD mice, dose 8X; fluorescence microscopy of brain sections
Chain of amyloid β (Aβ) plaques (P05067 672-713): as the sequence (P05067 672-713 limits assumed) above

[3] = biological target: low density lipoprotein receptor-related protein-1 (LRP-1) (mouse (endogenous receptor of the injected BALB/C mice)) (UniProt Q91ZX7); experiment: cell-based or functional assay
Chain of low density lipoprotein receptor-related protein-1 (LRP-1) (mouse (endogenous receptor of the injected BALB/C mice)) (Q91ZX7 20-4545): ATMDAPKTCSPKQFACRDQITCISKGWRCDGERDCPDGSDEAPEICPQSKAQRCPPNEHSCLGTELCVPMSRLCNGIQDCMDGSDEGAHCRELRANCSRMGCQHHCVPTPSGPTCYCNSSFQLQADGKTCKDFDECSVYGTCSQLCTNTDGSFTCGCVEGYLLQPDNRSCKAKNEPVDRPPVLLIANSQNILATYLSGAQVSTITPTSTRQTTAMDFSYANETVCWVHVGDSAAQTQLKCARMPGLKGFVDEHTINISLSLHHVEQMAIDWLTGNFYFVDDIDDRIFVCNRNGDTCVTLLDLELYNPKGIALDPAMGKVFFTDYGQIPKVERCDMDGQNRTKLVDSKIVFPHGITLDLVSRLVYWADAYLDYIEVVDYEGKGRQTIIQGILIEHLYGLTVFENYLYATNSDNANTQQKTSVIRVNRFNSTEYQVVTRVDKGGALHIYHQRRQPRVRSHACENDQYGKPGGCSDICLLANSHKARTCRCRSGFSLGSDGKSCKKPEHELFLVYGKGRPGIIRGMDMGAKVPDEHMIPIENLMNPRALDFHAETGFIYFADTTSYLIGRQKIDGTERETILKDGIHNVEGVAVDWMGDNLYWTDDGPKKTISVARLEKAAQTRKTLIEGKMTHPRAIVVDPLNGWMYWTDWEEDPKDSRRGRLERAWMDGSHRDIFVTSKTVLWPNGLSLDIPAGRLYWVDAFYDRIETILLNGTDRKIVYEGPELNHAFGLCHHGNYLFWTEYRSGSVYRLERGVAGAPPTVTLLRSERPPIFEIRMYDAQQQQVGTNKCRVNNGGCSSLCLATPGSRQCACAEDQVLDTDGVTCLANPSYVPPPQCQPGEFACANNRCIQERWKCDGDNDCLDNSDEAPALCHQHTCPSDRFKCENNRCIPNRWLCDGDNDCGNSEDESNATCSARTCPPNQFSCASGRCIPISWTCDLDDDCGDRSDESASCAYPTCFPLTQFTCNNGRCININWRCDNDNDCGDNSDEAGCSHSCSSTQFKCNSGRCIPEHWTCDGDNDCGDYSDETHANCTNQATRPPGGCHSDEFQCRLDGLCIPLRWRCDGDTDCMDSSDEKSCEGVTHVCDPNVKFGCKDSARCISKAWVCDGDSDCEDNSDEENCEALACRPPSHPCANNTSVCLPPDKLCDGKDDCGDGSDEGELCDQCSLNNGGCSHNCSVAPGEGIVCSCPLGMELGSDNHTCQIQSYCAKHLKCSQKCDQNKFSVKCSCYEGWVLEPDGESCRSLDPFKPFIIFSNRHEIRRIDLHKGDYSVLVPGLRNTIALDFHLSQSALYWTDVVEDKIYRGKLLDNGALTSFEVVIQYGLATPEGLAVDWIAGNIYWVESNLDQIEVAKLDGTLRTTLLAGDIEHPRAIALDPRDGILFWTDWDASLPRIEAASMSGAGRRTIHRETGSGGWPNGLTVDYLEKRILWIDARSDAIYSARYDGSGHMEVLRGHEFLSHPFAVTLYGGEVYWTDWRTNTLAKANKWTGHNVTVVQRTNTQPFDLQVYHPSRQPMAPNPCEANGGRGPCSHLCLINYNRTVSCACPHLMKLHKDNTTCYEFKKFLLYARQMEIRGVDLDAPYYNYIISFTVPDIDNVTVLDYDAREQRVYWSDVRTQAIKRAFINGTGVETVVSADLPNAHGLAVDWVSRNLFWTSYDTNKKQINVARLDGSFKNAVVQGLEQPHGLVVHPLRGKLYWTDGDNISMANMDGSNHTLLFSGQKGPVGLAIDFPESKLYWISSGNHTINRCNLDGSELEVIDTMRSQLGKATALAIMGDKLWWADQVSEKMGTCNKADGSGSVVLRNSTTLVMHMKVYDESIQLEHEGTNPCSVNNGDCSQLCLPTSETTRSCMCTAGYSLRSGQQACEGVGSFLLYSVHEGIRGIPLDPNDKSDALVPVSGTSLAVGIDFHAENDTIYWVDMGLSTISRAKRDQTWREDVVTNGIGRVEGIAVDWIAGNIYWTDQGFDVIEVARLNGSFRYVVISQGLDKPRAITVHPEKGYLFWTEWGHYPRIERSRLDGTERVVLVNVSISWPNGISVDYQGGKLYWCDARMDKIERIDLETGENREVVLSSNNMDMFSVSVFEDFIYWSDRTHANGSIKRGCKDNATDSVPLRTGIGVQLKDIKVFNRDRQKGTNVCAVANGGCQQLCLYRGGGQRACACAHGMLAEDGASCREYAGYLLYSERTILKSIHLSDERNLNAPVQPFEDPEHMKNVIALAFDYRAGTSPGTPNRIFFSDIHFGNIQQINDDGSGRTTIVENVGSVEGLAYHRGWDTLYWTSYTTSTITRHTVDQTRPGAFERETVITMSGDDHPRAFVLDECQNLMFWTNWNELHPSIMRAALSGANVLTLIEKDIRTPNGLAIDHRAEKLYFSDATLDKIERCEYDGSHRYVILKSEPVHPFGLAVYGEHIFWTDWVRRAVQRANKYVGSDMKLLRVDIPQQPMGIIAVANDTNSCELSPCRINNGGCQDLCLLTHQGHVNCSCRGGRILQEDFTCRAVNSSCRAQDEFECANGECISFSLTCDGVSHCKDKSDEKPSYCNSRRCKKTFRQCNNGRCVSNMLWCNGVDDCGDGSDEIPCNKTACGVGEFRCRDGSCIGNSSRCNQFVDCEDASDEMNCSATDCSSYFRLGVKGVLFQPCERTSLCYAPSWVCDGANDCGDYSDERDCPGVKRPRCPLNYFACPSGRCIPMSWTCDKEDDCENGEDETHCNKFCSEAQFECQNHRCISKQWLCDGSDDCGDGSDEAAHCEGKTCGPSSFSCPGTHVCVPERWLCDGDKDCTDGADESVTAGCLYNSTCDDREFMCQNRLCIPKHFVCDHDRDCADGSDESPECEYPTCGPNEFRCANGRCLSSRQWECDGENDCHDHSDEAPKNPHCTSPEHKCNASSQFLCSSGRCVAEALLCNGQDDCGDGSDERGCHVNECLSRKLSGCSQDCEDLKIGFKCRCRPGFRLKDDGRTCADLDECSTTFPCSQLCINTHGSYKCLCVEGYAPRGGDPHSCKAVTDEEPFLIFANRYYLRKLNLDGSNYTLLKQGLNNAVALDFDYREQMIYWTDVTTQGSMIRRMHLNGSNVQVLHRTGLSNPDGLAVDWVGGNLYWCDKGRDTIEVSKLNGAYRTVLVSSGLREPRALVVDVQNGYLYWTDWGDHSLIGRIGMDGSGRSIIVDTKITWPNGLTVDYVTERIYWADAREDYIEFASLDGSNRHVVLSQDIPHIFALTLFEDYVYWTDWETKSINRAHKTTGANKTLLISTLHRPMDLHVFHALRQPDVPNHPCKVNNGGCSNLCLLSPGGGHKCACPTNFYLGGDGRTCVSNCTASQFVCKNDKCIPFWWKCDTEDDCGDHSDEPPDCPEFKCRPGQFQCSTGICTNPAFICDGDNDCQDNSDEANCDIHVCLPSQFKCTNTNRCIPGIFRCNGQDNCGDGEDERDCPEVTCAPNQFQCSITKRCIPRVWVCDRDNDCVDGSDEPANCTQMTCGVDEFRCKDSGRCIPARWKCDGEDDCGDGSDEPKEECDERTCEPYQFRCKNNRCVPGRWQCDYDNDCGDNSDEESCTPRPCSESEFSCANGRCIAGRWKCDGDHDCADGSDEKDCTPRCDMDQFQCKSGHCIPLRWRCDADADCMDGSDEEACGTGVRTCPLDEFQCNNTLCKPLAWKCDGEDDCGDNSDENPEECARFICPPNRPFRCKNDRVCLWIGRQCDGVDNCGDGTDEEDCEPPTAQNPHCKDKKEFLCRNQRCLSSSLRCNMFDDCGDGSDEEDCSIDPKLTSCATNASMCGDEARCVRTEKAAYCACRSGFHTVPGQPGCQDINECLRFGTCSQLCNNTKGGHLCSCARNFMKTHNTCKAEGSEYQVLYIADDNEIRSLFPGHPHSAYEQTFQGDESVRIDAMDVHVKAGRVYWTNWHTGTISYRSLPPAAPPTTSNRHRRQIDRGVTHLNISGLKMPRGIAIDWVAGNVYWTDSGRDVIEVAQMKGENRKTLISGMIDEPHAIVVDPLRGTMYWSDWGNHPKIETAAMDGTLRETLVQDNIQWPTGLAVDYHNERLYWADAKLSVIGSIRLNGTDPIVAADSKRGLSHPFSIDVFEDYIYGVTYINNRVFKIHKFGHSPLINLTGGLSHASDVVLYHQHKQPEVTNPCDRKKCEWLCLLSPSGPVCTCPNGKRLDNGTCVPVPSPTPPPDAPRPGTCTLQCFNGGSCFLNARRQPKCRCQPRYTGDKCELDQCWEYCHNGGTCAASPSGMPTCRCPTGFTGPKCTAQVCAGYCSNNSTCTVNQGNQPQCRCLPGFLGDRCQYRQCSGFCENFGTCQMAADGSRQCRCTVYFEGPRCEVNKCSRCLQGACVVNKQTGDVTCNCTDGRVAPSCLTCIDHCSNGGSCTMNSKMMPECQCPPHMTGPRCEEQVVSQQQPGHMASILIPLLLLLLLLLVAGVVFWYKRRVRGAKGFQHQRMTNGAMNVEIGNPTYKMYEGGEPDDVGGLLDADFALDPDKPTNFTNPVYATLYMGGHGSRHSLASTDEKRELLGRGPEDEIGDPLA

[4] = injected dose 8X (0.55 μmol/Kg)

## PMLA/LLL/AP2/Miniap4/rhodamine [P/LLL/AP2/M4]
[1]
  ζ potential: −5.5 mV

## PMLA/LLL/D1/rhodamine (peptide 1 QSHYRHISPAQVC; peptide 2 Leu-Leu-Leu; not fully specified) [P/LLL/D1]
Neurons and astroglia
  #Labeled/#total counted cells, Cortex astroglia: [5/40]
  % of positive cells, Cortex astroglia: 12.5%
  #Labeled/#total counted cells, Cortex neurons: [119/141]
  % of positive cells, Cortex neurons: 84.4%
  #Labeled/#total counted cells, Hippocampus astroglia: [4/57]
  % of positive cells, Hippocampus astroglia: 7.0%
  #Labeled/#total counted cells, Hippocampus neurons: [286/433]
  % of positive cells, Hippocampus neurons: 66.0%
Brain cells
  increase of particle diameter in comparison with PBS: 2.5 fold
Glioblastoma GL261
  Tumor fluorescence: 86.6
  ratio Tumor/Brain: 16.4
Aβ plaque; [4]
  Percentage of total plaques labeled by the reagents: 0%
neurons
  average fluorescence per neuron nucleus (in words): significantly higher than for PBS
Brain parenchyma
  cortex Y intercepts of fluorescence vs distance curves (exponential fits): 21.6
Brain (other hemisphere); dose 4X
  Brain (other hemisphere) fluorescence: 5.3

## PMLA/LLL/M4/rhodamine (peptide 1 KAPETALD; peptide 2 Leu-Leu-Leu; not fully specified) [P/LLL/M4]
[1]
  ζ potential: −10.4 mV
Glioblastoma GL261
  Tumor fluorescence: 86.2
  ratio Tumor/Brain: 22.8
Aβ plaque; [4]
  Percentage of total plaques labeled by the reagents: 0%
Brain (other hemisphere); dose 4X
  Brain (other hemisphere) fluorescence: 3.8

## PMLA/LLL/B6/rhodamine (peptide 1 CGHKAKGPRK; peptide 2 Leu-Leu-Leu; also: conjugated to polymalic acid (PMLA), rhodamine label) [P/LLL/B6]
[2]
  BBB permeation efficacy in AD brain (in words): A decrease was not observed
[1]
  ζ potential: −6.1 mV
Glioblastoma GL261
  dose-dependent change of tumor fluorescence between 1× and 4×: 23 fold
Aβ plaque; [4]
  Percentage of total plaques labeled by the reagents: 3.3%
Brain (other hemisphere); dose 1X
  Brain (other hemisphere) fluorescence: 1.2
Brain (other hemisphere); dose 4X
  Brain (other hemisphere) fluorescence: 6.8

## PMLA/LLL/B6/rhodamine
Amyloid β (Aβ) plaques
  Percentage of total plaques labeled by the reagents: 3.3%

## PMLA/LLL/rhodamine
Amyloid β (Aβ) plaques
  Percentage of total plaques labeled by the reagents: 4.5%

## PMLA/M4/rhodamine (KAPETALD; not fully specified) [P/M4]
[1]
  ζ potential: −14.6 mV

## PMLA/LLL/AP2/rhodamine
Amyloid β (Aβ) plaques
  Percentage of total plaques labeled by the reagents: 1.23%

## PMLA/LLL/D3/rhodamine (peptide 1 RPRTRLHTHRNRC; peptide 2 Leu-Leu-Leu; not fully specified (some residues)) [P/LLL/D3]
Neurons and astroglia
  #Labeled/#total counted cells, Cortex astroglia: [7/46]
  % of positive cells, Cortex astroglia: 15.2%
  #Labeled/#total counted cells, Cortex neurons: [286/300]
  % of positive cells, Cortex neurons: 95.3%
  #Labeled/#total counted cells, Hippocampus astroglia: [14/47]
  % of positive cells, Hippocampus astroglia: 29.8%
  #Labeled/#total counted cells, Hippocampus neurons: [894/967]
  % of positive cells, Hippocampus neurons: 92.45%
Brain cells
  increase of particle diameter in comparison with PBS: 2.5 fold
Glioblastoma GL261
  Tumor fluorescence: 92.6
  ratio Tumor/Brain: 11.9
Aβ plaque; injected dose 2X
  Percentage of total plaques labeled by the reagents: 0% all in a single box
Aβ plaque; injected dose 4X
  Percentage of total plaques labeled by the reagents: 0%
Aβ plaque; injected dose 6X
  Percentage of total plaques labeled by the reagents: 0%
Aβ plaque; [4]
  Percentage of total plaques labeled by the reagents: 21.1%
neurons
  average fluorescence per neuron nucleus (in words): significantly higher than for PBS
Brain parenchyma
  cortex Y intercepts of fluorescence vs distance curves (exponential fits): 21.1
Brain (other hemisphere); dose 4X
  Brain (other hemisphere) fluorescence: 7.8

## PMLA/LLL/rhodamine (Leu-Leu-Leu; also: conjugated to PMLA with rhodamine, link not given here) [P/LLL, polymalic acid with tri-leucine (40%) and rhodamine]
Aβ plaque; [4]
  Percentage of total plaques labeled by the reagents: 4.5%

B1: PMLA/LLL/D1/rhodamine (peptide)
peptide 1: [dQ][dS][dH][dY][dR][dH][dI][dS][dP][dA][dQ][dV]C
peptide 2: Leu-Leu-Leu
modifications: not fully specified (some residues, N-terminus); also: LLL amide-linked to PMLA carboxylates
[3]
  P/LLL/D1/rh fluorescence intensity in the brain parenchyma (BBB crossing) on co-injection of a 70-fold molar excess of AP2: 54.5%
  P/LLL/D1/rh fluorescence intensity in the parenchyma (transcytosis) with 21 µmol/kg free AP2: 50%
